Test results taken from paper PMC10730821.
Blank lines part the entries; values can stand above or below the substance they belong to.

How the values were obtained:
Assay in all cases: high-speed atomic force microscopy (HS-AFM); channel held by its C-terminal His-tag on Ni2+-coated mica, reconstituted into a DMPC bilayer, extracellular side imaged; 20 mM Tris pH 7.4, 150 mM NaCl (WT, E32Q/N49K) or 50 mM NaCl (N49K); 5 or 10 frames/s; no membrane potential
[1] = biological target: NavAb channel E32Q/N49K mutant, C-terminal cytoplasmic domain truncated, C-terminal His-tag (Arcobacter butzleri) (UniProt A8EVM5)
[2] = biological target: NavAb channel N49K mutant, C-terminal cytoplasmic domain truncated, C-terminal His-tag (Arcobacter butzleri) (UniProt A8EVM5)
[3] = biological target: NavAb channel, wild type, C-terminal cytoplasmic domain truncated, C-terminal His-tag (Arcobacter butzleri) (UniProt A8EVM5)

Substance: NavAb channel E32Q/N49K mutant, C-terminal cytoplasmic domain truncated, C-terminal His-tag (from UniProt A8EVM5 1-230) (natural protein)
- size of the VSD-VSD oligomer between channels [1]: 2
- stoichiometry N [1]: 4

Substance: NavAb channel N49K mutant, C-terminal cytoplasmic domain truncated, C-terminal His-tag (from UniProt A8EVM5 1-230) (natural protein)
- stoichiometry N [2]: 4

- stoichiometry N [3]: 4
Substance: NavAb channel, wild type, C-terminal cytoplasmic domain truncated, C-terminal His-tag (from UniProt A8EVM5 1-230) (natural protein)
